According to patent US10941200B2, “TREM2 cleavage modulators and uses thereof” (Deutsches Zentrum Für Neurodegenerative Erkrankungen EV, priority 2016, dated 2021):
Numbering of substitutions follows the chain as printed. “Also recorded” adds a separate entry of the source.

T1: human TREM2 (Homo sapiens, UniProt Q9NZC2)
T1 construct: HEK293 Flp-In cells either expressing human full-length TREM2 or empty vector; expressed in transfected cells
T1 sequence (Q9NZC2 19-230): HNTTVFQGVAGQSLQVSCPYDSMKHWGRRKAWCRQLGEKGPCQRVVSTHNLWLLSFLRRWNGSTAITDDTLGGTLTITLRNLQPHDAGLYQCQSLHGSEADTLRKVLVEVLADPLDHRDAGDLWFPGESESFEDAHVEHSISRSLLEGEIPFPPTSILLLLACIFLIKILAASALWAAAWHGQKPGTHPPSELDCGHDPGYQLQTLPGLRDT

B1: clone 7A12: rat monoclonal antibody against TREM2 cleavage site peptide; heavy chain variable SEQ ID NO: 25, light chain variable SEQ ID NO: 35 (antibody, V domains shown)
VH: EVKLLESGGGLVQPGGSMRLSCAASGFTFTDFYMNWIRQPAGKAPEWLGLIRNKANGYTTQYNPSVKGRFTISRDNTQNMLYLQMNTLRGEDTATYYCARIGINNGGSLDYWGQGVMVTVSS
VL: DILINQSPASLTVSAGEKVTMSCKSSQSLLYSEKNQDYLAWYQQKPGQSPKLLMYGASYRHTGVPDRFTGSGSGTDFTLTISSVQAEDLADYYCEQTYSYPYTFGAGTKLELK
modifications: Clone 7A12 variable region of the heavy chain; Clone 7A12 variable region of the light chain
B2: clone 10C3: rat monoclonal antibody against TREM2 cleavage site peptide; heavy chain variable SEQ ID NO: 28, light chain variable SEQ ID NO: 38 (antibody, V domains shown)
VH: B1 VH with K43E, A44T, A55T, N56K, Q61E, T87S, G90P, I103T
VL: B1 VL with N5I, E17A, K18R, K34N, S49F, M54I, Y59N
modifications: Clone 10C3 variable region of the heavy chain; Clone 10C3 variable region of the light chain
B3: clone 15C5: rat monoclonal antibody against TREM2 cleavage site peptide; heavy chain variable SEQ ID NO: 30, light chain variable SEQ ID NO: 40 (antibody, V domains shown)
VH: B1 VH with N56Y, Q61E, N79D, G90A, N105Y
VL: B1 VL with M21V, K34S, S49F, M54I, D91H
modifications: Clone 15C5 variable region of the heavy chain; Clone 15C5 variable region of the light chain
B4: clone 18F9: rat monoclonal antibody against TREM2 cleavage site peptide; heavy chain variable SEQ ID NO: 29, light chain variable SEQ ID NO: 39 (antibody, V domains shown)
VH: B1 VH with A23V, A24V, P40A, A55V, T59R, Q61E, T77I, G90A
VL: B1 VL with K34N, S49F, M54I, Y59N
modifications: Clone 18F9 variable region of the heavy chain; Clone 18F9 variable chain of the light region
B5: clone 21A3: rat monoclonal antibody against TREM2 cleavage site peptide; heavy chain variable SEQ ID NO: 27, light chain variable SEQ ID NO: 37 (antibody, V domains shown)
VH: B1 VH
VL: B1 VL
modifications: Clone 21A3 variable region of the heavy chain; Clone 21A3 variable region of the light chain
B6: clone 8A11: rat monoclonal antibody against TREM2 cleavage site peptide; heavy chain variable SEQ ID NO: 26, light chain variable SEQ ID NO: 36 (antibody, V domains shown)
VH: B1 VH with A55T, N56K, Q61E, P64T, T87S, G90P, I103V
VL: B1 VL with N5I, E17A, K18R, K34N, S49F, M54I, Y59N
modifications: Clone 8A11 variable region of the heavy chain; Clone 8A11 variable region of the light chain

How the values were obtained:
human TREM2 [1] = assay: MALDI-TOF mass spectrometry analysis of TREM2 ectodomain cleavage (C-terminal fragment) in HEK293 cells; assay type: cell-based; settings: C-terminally FLAG-tagged TREM2 in HEK293 cells, FIG. 1B
Method: HEK293 Flp-In cells stably expressing WT and H157Y TREM2 were harvested in PBS. Cell pellets were frozen at −20° C. until use. Cells were lysed in lysis buffer (4% DDM, 0.1% N-octylglucoside, 10 mM Tris-HCl, pH 8.0, 5 mM EDTA, and 140 mM NaCl) containing protease inhibitor mix (Sigma-Aldrich) for 20 min on ice. Following a clarifying spin at 13,000 g for 20 min, supernatants were subjected to a second clarifying spin by centrifugation at 100,000 g for 1 h, and incubated with anti-FLAG M2-agarose (Sigma-Aldrich) overnight by rotation at 4° C. Beads were washed four times with IP/MS buffer (0.1% N-octylglucoside, 10 mM Tris-HCl, pH 8.0, 5 mM EDTA, and 140 mM NaCl) and two times with water. Beads were stored at −20° C. until IP/MS analysis.
IP/MS analysis was performed using Voyager DE STR (Applied Biosystems) as described previously). Immunoprecipitated peptides were eluted with TFA/CH3CN/water (1:20:20) saturated with α-cyano-4-hydroxy cinnamic acid. The dissolved samples were dried on a stainless plate and subjected to MALDI-TOF MS analysis.

human TREM2 [2] = target: T1, human TREM2; settings: Kleinberger et al, 2014; cited from earlier work
human TREM2 [3] = target: T1, human TREM2; assay: Immunoblotting of mature TREM2 in membrane fractions of HEK cells stably overexpressing wt TREM2; assay type: cell-based; settings: for levels of mature TREM2 in the membrane fraction (quantified immunoblots), result in words: antibody 50 μg/mL, 24 hrs, normalized to immature TREM2, FIG. 7C
Method: HEK293 Flp-In cells stably overexpressing TREM2 or TREM2-DAP12 cDNA constructs were seeded at a density of 1.5×10^5/cm^2 and medium changed 48 h post seeding. Conditioned medium was collected after 18-20 h, immediately cooled down on ice, centrifuged at 13,000 rpm for 20 min at 4° C. and supernatants frozen at −20° C. until analysis. Supernatants were directly subjected to standard 15% SDS-PAGE. To prepare membrane fractions, cells were washed twice with ice-cold PBS, resuspended in ice-cold hypotonic buffer (0.01 M Tris, pH 7; 1 mM EDTA; 1 mM EGTA), freshly supplemented with protease inhibitor (Sigma) and incubated on ice for 30 min. After snap freezing in liquid
nitrogen and thawing, the disrupted cells were centrifuged at 13,000 rpm for 45 min at 4° C.
The resulting pellet was resuspended in STE lysis buffer (150 mM NaCl, 50 mM Tris-HCl,
pH 7.6, 2 mM EDTA, 1% Triton-X 100), incubated for 20 min on ice and clarified by centrifugation at 13,000 rpm for 30 min at 4° C. Protein concentrations were measured using the BCA method, equal amounts of protein were mixed with Laemmli sample buffer, supplemented with beta mercaptoethanol, separated by SDS-PAGE and transferred onto polyvinylidene difluoride membranes (Hybond P; Amersham Biosciences, Aylesbury, UK). Bound antibodies were visualized by corresponding HRP-conjugated secondary antibodies
using enhanced chemiluminescence technique (Pierce). Quantification of immunoblots was performed on a LAS-4000 image reader and analyzed using the Multi-Gauge V3.0 software (both Fujifilm Life Science).
(§1) 1*10^6-1.5*10^6 cells were seeded in the 6-well format. 24 hours later fresh medium was added to the cells. Antibody clones as generated by Dr. Feederle (Helmholtz Center Munich, Core Facility Monoclonal Antibody Development) were added simultaneously, i.e. for overnight treatment (about 24 hrs), at a final concentration of 50 μg/mL. On the next day, conditioned media and cells were collected and processed as described under “Preparation of conditioned media, cell lysates, and immunoblotting”.
(§2) ADAM10 inhibitor G1254023X (5 μM final concentration) and a control monoclonal antibody, which is specific for the C terminus of human TREM2, were used as positive and negative controls, respectively.

human TREM2 [4] = target: T1, human TREM2; assay: sTREM2 ELISA of conditioned media from HEK293 Flp-In cells stably overexpressing wt TREM2 (ectodomain shedding); assay type: cell-based; settings: normalized to immature TREM2; for sTREM2 levels (ELISA), result in words: antibody 50 μg/mL, 24 hrs, FIG. 7B
Method: as §1, §2
For quantitation of levels of sTREM2 in cell culture supernatants, an ELISA for human sTREM2 was established using the Meso Scale Discovery SECTOR Imager 2400. Streptavidin-coated 96-well plates were blocked overnight at 4° C. in 0.5% bovine serum albumin (BSA) and 0.05% Tween 20 in PBS (pH 7.4) (blocking buffer). For detection of human sTREM2, plates were shaken for 1 hour at room temperature with biotinylated polyclonal goat anti-human TREM2 capture antibody (0.25 mg/ml; R&D Systems) diluted in blocking buffer. Plates were washed subsequently four times with 0.05% Tween 20 in PBS (washing buffer) and incubated for 2 hours at room temperature with samples diluted 1:4 in 0.25% BSA and 0.05% Tween 20 in PBS (pH 7.4) (assay buffer) supplemented with protease inhibitors (Sigma). Recombinant human TREM2 protein (Holzel Diagnostika) was diluted in assay buffer in a two-fold serial dilution and used for the standard curve (concentration range, 4000 to […]). Plates were washed three times for 5 min with washing buffer before incubation for 1 hour at room temperature with mouse monoclonal anti-TREM2 antibody (1 mg/ml; Santa Cruz Biotechnology; B-3) diluted in blocking buffer. After three additional washing steps, plates were incubated with a SULFO-TAG-labeled anti-mouse secondary antibody (1:1000; Meso Scale Discovery) and incubated for 1 hour in the dark. Last, plates were washed three times with washing buffer followed by two washing steps in PBS and developed by adding Meso Scale Discovery Read buffer. The light emission at 620 nm after electrochemical stimulation was measured using the Meso Scale Discovery SECTOR Imager 2400 reader. To quantify the levels of sTREM2 secreted from HEK293 Flp-In cells, conditioned media from biological replicates were analyzed in duplicates. The sTREM2 standard curves were generated using the MasterPlex ReaderFit software (MiraiBio Group, Hitachi Solutions America) through a five-parameter logistic fit. Levels of sTREM2 were subsequently normalized to levels of immature TREM2 as quantified from Western Blots.

| Molecule | levels of mature TREM2 in the membrane fraction (quantified immunoblots), result in words (human TREM2 [3]) | sTREM2 levels (ELISA), result in words (human TREM2 [4]) | also measured |
| --- | --- | --- | --- |
| CNC(=O)[C@@H](NC(=O)[C@H](CCCc1ccccc1)[C@H](C)N(O)C=O)C(C)(C)C [G1254023X] | – | – | TREM2 C-terminal fragment cleavage peak in MALDI-TOF mass spectra upon ADAM inhibition (human TREM2 [1]; listed as GI): no identified peak; also recorded: did not show any peak; inhibition of TREM2 cleavage (literature) (human TREM2 [2]): strongly inhibit cleavage; levels of mature TREM2, result in words (human TREM2 [3]; ADAM10 inhibitor 5 μM, positive control): increased levels of mature TREM2; decrease in shedding (sTREM2 ELISA) (human TREM2 [4]; ADAM10 inhibitor 5 μM, about 24 hrs, positive control): about 60% |
| CNC(=O)[C@H](Cc1c[nH]c2ccccc12)NC(=O)[C@@H](CC(=O)NO)CC(C)C [GM] | – | – | TREM2 C-terminal fragment cleavage peak in MALDI-TOF mass spectra upon ADAM inhibition (human TREM2 [1]): no identified peak; also recorded: did not show any peak |
| B1 | increased levels of TREM2 in the membrane fraction | slight trend toward reduced sTREM2 levels | – |
| B2 | increased levels of TREM2 in the membrane fraction | slight trend toward reduced sTREM2 levels | – |
| B3 | – | slight trend toward reduced sTREM2 levels | – |
| B4 | – | slight trend toward reduced sTREM2 levels | – |
| B5 | – | slight trend toward reduced sTREM2 levels | – |
| B6 | increased levels of TREM2 in the membrane fraction | – | – |
